The target of experiment [1] is human LILRB2 (human) (UniProt Q8N423). The experiment in a line: BLI Octet sandwich binning; competitor (antibody #1 on sensor) J-03.
For experiment [2] the target is unchanged. The experiment in a line: BLI Octet sandwich binning; competitor (antibody #1 on sensor) J-04.
Experiment [3] shares this target. The experiment is described as follows: BLI Octet sandwich binning; competitor (antibody #1 on sensor) J-07.
For experiment [4] the target is unchanged. The experiment is described as follows: BLI Octet sandwich binning; competitor (antibody #1 on sensor) J-11.
The target is the same in experiment [5]. The experiment in a line: BLI Octet sandwich binning; competitor (antibody #1 on sensor) J-16.
For experiment [6] the target is unchanged. The experiment is described as follows: BLI Octet sandwich binning; competitor (antibody #1 on sensor) J-17.
Experiment [7] has the same target. The experiment is described as follows: BLI Octet sandwich binning; competitor (antibody #1 on sensor) J-19.
Another experiment has as its target human LILRA4 (human) (UniProt P59901). The experiment in a line: flow cytometry, LILRA4 CHOs.
For another experiment, the target named is human LILRA5 (human) (UniProt A6NI73). The experiment is described as follows: flow cytometry, LILRA5 CHOs.
A further experiment concerns the target human LILRB4 (human) (UniProt Q8NHJ6). The experiment is described as follows: flow cytometry, LILRB4 CHOs.
In experiment [8] the target is human LILRB2 (human) (UniProt Q8N423). The experiment is described as follows: BLI ForteBio Octet Red96; antibody on anti-human capture sensor, LILRB2 at 50 nM and 5 nM.
For experiment [9] the target is unchanged. The experiment is described as follows: SPR, SierraSensor MASS-2; antibody captured on anti-human Fc chip, LILRB2 65 to 0.089 nM, triplicates.
Experiment [10] has the same target. The experiment is described as follows: SPR, SierraSensor MASS-2; antibody captured on anti-human Fc chip, LILRB2 65 to 0.089 nM, duplicates.
The target is the same in experiment [11]. The experiment is described as follows: SPR, SierraSensor MASS-2; antibody captured on anti-human Fc chip, LILRB2 65 to 0.089 nM, duplicates; the reference itself.
The next experiment deals with human LILRA1 (human) (UniProt O75019). The experiment is described as follows: flow cytometry, LILRA1 CHOs.

Substitutions are numbered along the chain they refer to.

Sequence of human LILRA5 (human) (A6NI73 42-299 limits assumed): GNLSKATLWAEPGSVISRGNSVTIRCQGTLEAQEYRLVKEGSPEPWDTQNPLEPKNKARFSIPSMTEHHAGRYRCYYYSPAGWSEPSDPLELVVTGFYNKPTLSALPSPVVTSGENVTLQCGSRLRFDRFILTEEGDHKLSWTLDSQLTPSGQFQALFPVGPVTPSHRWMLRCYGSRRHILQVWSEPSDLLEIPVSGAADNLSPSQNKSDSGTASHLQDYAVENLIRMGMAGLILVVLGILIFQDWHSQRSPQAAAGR
Sequence of human LILRA1 (human) (O75019 17-489 limits assumed): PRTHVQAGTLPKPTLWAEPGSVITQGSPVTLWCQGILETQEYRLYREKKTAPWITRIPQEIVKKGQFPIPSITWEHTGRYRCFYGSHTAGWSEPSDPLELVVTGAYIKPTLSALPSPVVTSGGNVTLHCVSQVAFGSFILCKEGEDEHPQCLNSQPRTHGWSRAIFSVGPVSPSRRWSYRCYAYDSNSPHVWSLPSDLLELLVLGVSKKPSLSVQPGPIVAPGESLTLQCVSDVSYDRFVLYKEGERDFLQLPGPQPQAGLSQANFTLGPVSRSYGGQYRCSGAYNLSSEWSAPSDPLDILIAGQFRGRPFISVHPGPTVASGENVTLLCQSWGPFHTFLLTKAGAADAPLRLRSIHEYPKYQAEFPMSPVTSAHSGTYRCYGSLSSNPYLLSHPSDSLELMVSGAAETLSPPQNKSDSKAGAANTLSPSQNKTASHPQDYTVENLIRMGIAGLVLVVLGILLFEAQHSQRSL
Sequence of human LILRA4 (human) (P59901 other isoform, or with tags, fused parts or gaps limits assumed): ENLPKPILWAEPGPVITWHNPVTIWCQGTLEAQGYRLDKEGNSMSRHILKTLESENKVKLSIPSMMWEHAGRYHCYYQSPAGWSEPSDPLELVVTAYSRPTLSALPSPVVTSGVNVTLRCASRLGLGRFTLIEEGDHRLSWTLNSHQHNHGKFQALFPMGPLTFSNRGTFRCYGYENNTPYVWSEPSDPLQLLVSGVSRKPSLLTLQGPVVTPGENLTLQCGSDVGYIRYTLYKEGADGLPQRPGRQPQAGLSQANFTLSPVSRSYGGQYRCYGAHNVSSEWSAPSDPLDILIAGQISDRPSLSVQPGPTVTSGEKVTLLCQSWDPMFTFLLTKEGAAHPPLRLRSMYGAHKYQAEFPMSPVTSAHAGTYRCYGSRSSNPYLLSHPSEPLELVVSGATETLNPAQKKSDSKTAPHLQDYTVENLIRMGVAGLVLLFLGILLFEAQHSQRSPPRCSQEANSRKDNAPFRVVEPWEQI

B1: J-19 (antibody, human IgG4 S228P, kappa, V domains shown)
VH: QVTLKESGPGILQPSHTLSLTCSFSGFSLNTYAMGVSWIRQPSGKGLEWLASIWWNGNKYNNPSLKSRLTVSKDTSNNQAFLKVTSVDTADTATYYCAHSRIIRFTDYVMDAWGQGASVTVSS
VL: DIQMTQSPASLSTFLGEPVTIECRASEDIYNDLAWYQQKPGKSPQLLIYNANSLHTGVPSRFSGSGSGTQYSLKINSLQSEDVASYFCQQYYDYPLTFGSGTKLEIKR
Regarding B1, the response of antibody #2 was 0.15 in the experiment with human LILRB2 (human) [1]; 0.67 in the experiment with human LILRB2 (human) [2]; 0.27 with human LILRB2 (human) [3]; 0.71 in the experiment with human LILRB2 (human) [4]; 0.47 with human LILRB2 (human) [5]; -0.1 with human LILRB2 (human) [6]. For the same molecule, the response of antibody #2 with human LILRB2 (human) [7] was -0.21.

B2: J-04 (antibody, human IgG4 S228P, kappa, V domains shown)
VH: QVQLQQSGAELVRPGASVTLSCKASGYTFADYEIHWVKQTPVHGLEWIGAIDPETGGTAYNQKFKGKAILTADKSSSTAYMELRSLTSEDSAVYYCTRYYDYDDAMDYWGQGTSVTVSS
VL: QIVLTQSPAIMSASPGEKVTMTCSASSSVSFMHWYQQKSGTSPKRWIYGTSKLASGVPARFSGSGSGTSYSLTISSMEAEDAATYYCQQWNGNPFTFGSGTKLETKR
With B2, the binding (fold over iso) (fold over iso) with human LILRA4 (human) came out at 2.07. Further, the response of antibody #2 was -0.07 with human LILRB2 (human) [1]; -0.1 in the experiment with human LILRB2 (human) [2]; -0.3 with human LILRB2 (human) [3]; 0.54 with human LILRB2 (human) [4]; -0.31 with human LILRB2 (human) [5]; 0.46 in the experiment with human LILRB2 (human) [6]. In the experiment with human LILRB2 (human) [7], this molecule registered a response of antibody #2 of 0.54.

B3: J-11 (antibody, human IgG4 S228P, kappa, V domains shown)
VH: QVQLQQSGAELMKPGASVKLSCKATGYILTGYWIEWVKQRPGHGLEWIGEILPGSGSTNYNENFKGKATFTADTSSNTAYMQLSSLTTEDSAIYYCARAVLGYFDYWGQGTTLTVSS
VL: DIVMTQSHKFMSTSVGDRVSITCKASQDVSTAVAWYQQKPGQSPKLLIYWASTRHTGVPDRFTGSGSGTDYTLTISSVQAEDLALYYCHQHYSTYTFGGGTKLEIKR
On to B3, for which the response of antibody #2 is 0.01 with human LILRB2 (human) [1]; 0.51 with human LILRB2 (human) [2]; 0.1 with human LILRB2 (human) [3]; -0.24 with human LILRB2 (human) [4]; 0.3 with human LILRB2 (human) [5]; -0.27 with human LILRB2 (human) [6]. This molecule also returned a response of antibody #2 with human LILRB2 (human) [7] of 0.28.

B4: J-19.h4 (antibody, human IgG4 S228P, kappa, V domains shown)
VH: QVTLKESGPALVKPTHTLTLTCTFSGFSLNTYAMGVSWIRQPPGKALEWLASIWWNGNKYNNPSLKSRLTISKDTSKNQVVLTMTNMDPEDTATFYCAHSRIIRFTDYVMDAWGRGTTVTVSS
VL: DIVMTQSPSSLSASVGDTVTITCRASEDIYNDLAWYQQKPGKAPQLLLYNANSLHTGVPSRFSGSGSGTDYTLTISTLQPEDFATYYCQQYYDYPLTFGPGTKVHIKR
Take B4: the binding (fold over iso) (fold over iso) with human LILRA5 (human) came to 2.14; with human LILRB4 (human) it was 2.02.

B5: J-19.h5 (antibody, human IgG4 S228P, kappa, V domains shown)
VH: B4 VH with V2I, A10T, H16Q, I71V, S72T, E90V, F95Y, R104A, R115Q, T118L
VL: DIQMTQSPSSLSTSVGDRVTITCRASEDIYNDLAWYQQKPGKAPKLLIYNANSLHTGVASRFSGSGSGTDFTFTISSLQPEDVATYFCQQYYDYPLTFGQGTKLEIKR
For B5, in the experiment with human LILRB2 (human) [8], the fold higher affinity compared to J-19.h1 came to 2 fold. In the experiment with human LILRB2 (human) [9], this molecule had a Fold difference over J-19.h1 of 1.91 fold, a Kd of 1.31 nM, a koff of 0.00115 s⁻¹ and a kon of 876000 M⁻¹ s⁻¹.

B6: J-19.h7 (antibody, human IgG4 S228P, kappa, V domains shown)
VH: B4 VH with V2I, A10T, H16Q, I71V, S72T, E90V, F95Y, R104E, R115Q, T118L
VL: B5 VL
In the experiment with human LILRB2 (human) [10], B6 yielded a Fold difference over J-19.h1 of 2.73 fold, a Kd of 0.912 nM, a koff of 0.000788 s⁻¹ and a kon of 865000 M⁻¹ s⁻¹.

B7: J-19.h1 (antibody, human IgG4 S228P, kappa, V domains shown)
VH: B4 VH with V2I, A10T, H16Q, I71V, S72T, E90V, F95Y, R115Q, T118L
VL: B5 VL
As to B7, in the experiment with human LILRB2 (human) [10], the Kd turned out to be 2.49 nM, the koff worked out at 0.00176 s⁻¹ and the kon was 705000 M⁻¹ s⁻¹. Moreover, the Fold difference over J-19.h1 with human LILRB2 (human) [11] is 1 fold.

B8: J-19.h6 (antibody, human IgG4 S228P, kappa, V domains shown)
VH: B4 VH with V2I, A10T, H16Q, I71V, S72T, E90V, F95Y, R104D, R115Q, T118L
VL: B5 VL
Take B8: in the experiment with human LILRB2 (human) [9], the Fold difference over J-19.h1 came out at 3.47 fold, the Kd was 0.718 nM, the koff stood at 0.000592 s⁻¹ and the kon was 825000 M⁻¹ s⁻¹.

B9: J-17 (antibody, human IgG4 S228P, kappa, V domains shown)
VH: QIQLVQSGPELKKPGETVKISCKASGYTFTTYGLSWVKQTPGKGLKWMGWINTYSGVPTYTDDFKGRFAFSLETSASTAYLQINNLKNEDTATYFCARPYDFDQVGFAYWGQGTLVTVSA
VL: SIVMTQTPKFLLVSAGDRVSITCKASQTVSSDVAWYQQKAGQSPKLLIYYASNRYTGVPDRFTGSGYGTDFTFTISTVQAEDLAVYFCQQDYSSPFTFGGGSKLEIKR
For B9, the binding (fold over iso) (fold over iso) with human LILRA1 (human) amounted to 7.31. The response of antibody #2 in the experiment with human LILRB2 (human) [1] is 0.05; with human LILRB2 (human) [2], 0.42; in the experiment with human LILRB2 (human) [3] it was 0.04; with human LILRB2 (human) [4], -0.39; in the experiment with human LILRB2 (human) [5], 0.09; with human LILRB2 (human) [6], -0.11. In addition, the response of antibody #2 with human LILRB2 (human) [7] was -0.21.

The values are drawn from patent US20200339690A1.
